Paper PMC8646660 (EMBO Molecular Medicine, 2021)

Molecular target: SARS-CoV-2 S receptor-binding domain (RBD), biotinylated (SARS-CoV-2, UniProt P0DTC2, biotin on the Avi tag (enzymatic, BirA))
Experiment: cell-based or functional assay

B1: FD20 (IgG format) (antibody, V domains shown)
VH: QVQLQQSGAEVKKPGSSVKVSCKASGGTFSSYAFSWVRQAPGQGLEWMGRIIPILGIANYAQKFQGRVTITADISTSTAYMALSSLRSEDTAVYYCAKVEVNIGMDDYYYYYGMDVWGQGTTVTVSS
VL: not shown
Q: How did the “neutralisation of SARS-CoV-2 pp harbouring wild-type S, IC50 (fold in brackets)” value turn out when B1 was run?
A: 0.012 µM
